Where “and” joins values, the source holds several entries; their conditions need not be identical. Identical values can stand only once. Entries after “also recorded” stand apart in the source; their conditions may differ. No end group written: not given here.
Columns and labels:
[1] = Hydrophobic drug uptake and release (Nile red); format: physicochemical; conditions: for Nile red emission maxima: Nile red in peptide nanovesicles; for release kinetics of Nile red through peptide nanovesicles (in words): PBS pH 7.4, 20° C.; for retention of Nile red molecules (in words): compared to KA6-CONH2 and DA6-COOH vesicles
Procedure: The hydrophobic fluorescent probe Nile red was used as a probe molecule to study the peptide nanovesicle bilayer. […] The “thin film” method was used for the preparation of the dispersions. Briefly, 0.2 mg of the amphiphilic peptide was dissolved in ethanol and subsequently the organic solvent was removed under vacuum in a rotary evaporator. Then the produced thin film was rehydrated with 1 mL of PBS, pH 7.4 containing 3.14 uM Nile red. Prior to analysis the dispersions were bath sonicated for 30 minutes. All spectra were recorded at room temperature with excitation and emission slit widths set at 5 nm (RF-5301 PC Shimatzu spectrophotometer). The excitation wavelength was at 546 nm and the emission spectra were recorded from 550 to 700 nm.

[2] = system: Caco-2 cells
Procedure: Caco-2 cells (passage 40) were grown at 37° C. in tissue culture flasks with Dubelco's Modified Essential Medium (DMEM) supplemented with 10% v/v FBS (Fetal Bovine Serum) 1% nonessential amino acids and 100 ug/mL penicillin and streptomycin in humidified atmosphere containing 5% v/v CO2. The medium was changed every 2-3 days until cells reach 80% confluence and then were subcultured by trypsinization.
The effect of self-assembling peptides on cell viability and cell proliferation was investigated using the MTT colorimetric assay (Sigma). Caco-2 cells were cultured into the wells of 96-well plates using growth medium until a density of 4×10^3 cells/cm^2 was reached. Then we replaced the growth medium with fresh growth medium containing 0.2 or 1.0 mg/mL self-assembling peptides and the cells were incubated for 3, 24 and 48 h at 37° C. Then 10 uL of MTT reagent was added in each of the wells and the plates were incubated for 3 hat 37° C. Then 100 uL of the detergent solution was added and the plates were stored in the dark for 3 h to dissolve the formazan product. The optical density was measured at 600 nm in a Teknika® ELISA Plate spectrophotometer.

[3] = system: Caco-2 cell monolayers; assay: FITC-dextran 4.4 kDa permeability through Caco-2 monolayer; conditions: for Papp of FITC-dextran 4.4 kDa: apical to basolateral; for Enhancement ratio (FITC-dextran): R=Papp(peptide)/Papp(control); for enhancement of FITC-dextran transport compared with the control: 1.0 mgmt peptide
Procedure: Caco-2 cells were seeded at a density of 2×10^5 cells/cm^2 on 24-well 6.5 mm Transwell polyester membrane inserts (0.4 um pore size, Corning Costar, Cambridge, Mass.). The medium was changed every 2-3 days in both sides of the Transwell membrane. After 20 days the growth medium was replaced with 10 mM HBSS/HEPES buffer pH 7.4 and studies of the cell-monolayer integrity and permeability were performed.
For the permeability assay, we added in the apical side of the Transwell 1 mg/mL FITC-dextran MW 4.4 kDa (Sigma) in 10 mM HBSS/HEPES buffer pH 7.4 with and without 0.2 or 1.0 mg/mL of self-assembling peptides. At each time point, samples were withdrawn from the basorateral side and the amount of FITC-dextran was measured using a fluorescence 96-well plate reader. The excitation and emission wavelengths were 490 nm and 530 nm, respectively. Results were expressed as cumulative transepithelial transport of FITC-dextran as a function of time. All measurements were done in triplicates and expressed as mean±S.D. The apparent permeability coefficient was calculated according to Papp=(dQ/dt)/(dt)/(ACo) in cm/s, where dQ, is the cumulative amount of FITC-dextran in the basolateral side at time t, (dQ/dt) in pmol/s is the permeability rate, Co is the initial concentration of FITC-dextran in the apical side and A is the area of the monolayer. The enhancement ratio R equals to R=(Papp(peptide)/Papp(control)).

[4] = Release of carboxyfluorescein (CF) through peptide vesicles; format: physicochemical; conditions: for CF retention / release (in words): PBS pH 7.4
Procedure: To determine whether the peptide vesicles can be used for drug delivery we measured the release kinetics of the hydrophilic fluorescent probe 5,6-carboxyfluorescein (CF) through the peptide bilayer assemblies. The peptide powder was added into the CF solution in PBS and the suspension was probe-sonicated for 10 min followed by equilibration for 1 hour. Encapsulated CF is strongly quenched and therefore, only the released CF contributes to the fluorescence intensity signal. Released CF was removed by centrifugation at 11,000 rpm for 25 min using Microcon YM-10 membrane tubes (10 kDa cut-off). Then the vesicles were re-suspended in PBS and incubated for 1 hour at 20° C. The newly released CF during incubation was collected by centrifugation through the Microcon membrane and the fluorescence intensity was measured. This process was repeated every 1 hour and a graph was created to show the release kinetics of CF as a function of time.

[5] = Particle size determination by DLS; format: physicochemical; conditions: PBS pH 7.4, 25° C.
Procedure: Prior to measuring particle sizes by DLS, the peptide vesicle formulations in PBS were filtered through 0.4 um filter to remove vesicle aggregates. Normalized intensity-time correlation functions g^(2) (q,t)=I(q,t)I(q,0))/I(q,01))^2 were measured over a broad time scale (from 10^−7 s to 10^4 s) using a full multiple tau digital correlator (ALV-5000FAST) with 280 channels spaced quasi-logarithmically. The scattering wavevector q=4πn sin(θ/2)/λo depends on the scattering angle θ (herein we used 0=90°), the laser wavelength λo, and the refractive index of the medium n, We used the 671 nm line from a diode pumped solid state laser which operated at a power of less than 5 mW. The scattered light was collected by a single-mode optical fiber (coherence factor ˜0.95), transferred to an avalanche photo-detector and then to the digital correlator for analysis. Accumulation times were of the order of few seconds due to the strong scattered intensity from the dispersions. To check the reproducibility of the results, several time correlation functions were recorded for each peptide vesicle system dilute suspensions the normalized electric-field time auto-correlation function g^(1)=(E(q,t)E*(q,0))/(E(q,0))^2 is related to the experimentally recorded intensity autocorrelation function g^(2) (q,t)^2 through the Siegert relation g^(2) (q, t)=B[1+f*|g(1)(q,t)|^2 where B describes the long delay time behavior of g^(2) (q, t) and f* represents an instrumental factor obtained experimentally from measurements of a dilute polystyrene/toluene solution. In our case, the optical fiber collection results in f*˜0.95. The electric-field time correlation function g^(1)(t) (for simplicity we drop the q-dependence) was analyzed as a weighted sum of independent exponential contributions, i.e., g^(1)∫L(τ)exp(−t/τ)dτ=∫L(ln τ)exp(−t/τ)d in τ. The distribution of relaxation times L(lnr)=τL(τ) was obtained by inverse Laplace transformation of g<′>(q,t) using the CONTIN algorithm.
The apparent hydrodynamic radii of the suspended particles were determined using the Stokes-Einstein relation Rh=kBT/6πηD, where kB is the Boltzmann constant, η is the viscosity of the solvent, and D the diffusion coefficient of the particle. The latter is determined by D=1/t q^2. where τ is the relaxation time of g(^1) (q,t).

[6] = Microelectrophoretic mobility (ζ-potential) measurements; format: physicochemical; conditions: PBS pH 7.4, 20 mg/mL peptide
Procedure: To determine the ζ-potential of the peptide nanovesicle formulations we used a Nano ZetaSizer (Malvern Instrument, UK) equipped with an avalanche photodiode as detector and a 4 mW He—Ne laser operated at 633 nm. Data were acquired by laser Doppler velocimetry and phase analysis light scattering (PALS). The self-assembling peptides were dispersed in PBS at a concentration of 20 mg/mL, which is above their CMC, and equilibrated for 30 min at 25° C. prior to detection. Microelectrophoretic data were obtained using the Henry-Smoluchowski equation.

[7] = Critical micelle concentration (CMC) by Dynamic Light Scattering; format: physicochemical
Procedure: The CMC of the amphiphilic peptides was determined by Dynamic Light Scattering (DLS) experiments (PDDLS/Batch setup, Precision Detectors, Franklin, Mass.). Solutions of different peptide concentrations were prepared in PBS and were filtered through 0.4 urn pore size filters prior to measuring. Scattered light was detected at 90° and the number of photons reaching the avalanche photodiode was recorded. The solvent viscosity and the refractive index of the buffer were taken as 0.894 cP and 1.33, respectively, at […]. Data were acquired in triplicates and processed by the Precision Deconvolve program, […]

[8] = AFM imaging of peptide nanovesicles on mica; format: physicochemical; conditions: for number of nanovesicles per necklace: AFM image analysis; for Beads diameter, AFM analysis (necklace-like formations) / Vesicle diameter, AFM analysis: dry state on mica; for Vesicle diameter, AFM analysis: individual nanovesicles; for Clusters diameter, AFM analysis: nanovesicle clusters, dry state
Procedure: For the AFM experiments, 3 uL were removed from the peptide vesicle dispersions (20 mg/mL of peptides in PBS that has been filtered through 0.2 um filters) and deposited on a freshly cleaved mica surface (G250-2 mica sheets 2.5×2.5×0.015 cm; Agar Scientific Ltd, Essex, UK). The bare surface of mica is smooth (rms is about 0.4 nm). Before imaging, each sample was left on mica for 1 min, rinsed with 200 uL of water (Millipore), and dried in a nitrogen gas stream. Images were obtained immediately in air using a Veeco MultiMode NanoScope 3D Controller Scanning Probe Microscope (Digital Instruments, Santa Barbara, Calif.) operated in tapping mode. AFM imaging (512×512 pixels) was performed using soft silicon probes (FESP; nominal length lnom=225 um, width wnom=28 um, tip radius Rnom=8 nm, resonant frequency νnom=75 kHz, spring constant knom=2.8 N m^−1; Veeco Instruments SAS, Dourdan, France). Typical scanning parameters were tapping frequency 73 kHz, integral and proportional gains 0.2 and 0.4, respectively, set point 0.7-1.0 V, and scanning speed 1.0-1.5 Hz. The Nanoscope image processing software was used to obtain height patterns, cross sections, and MIS of the peptide nanovesicles. Images were collected from two different samples at random spot surface sampling (at least five areas).

[9] = biological target: P-glycoprotein (Homo sapiens, UniProt P08183); assay: Transepithelial transport of Rhodamine-123 (basolateral to apical); conditions: control additions: 100 uM Verapamil or 1% SDS
Chain of P-glycoprotein (P08183 whole entry): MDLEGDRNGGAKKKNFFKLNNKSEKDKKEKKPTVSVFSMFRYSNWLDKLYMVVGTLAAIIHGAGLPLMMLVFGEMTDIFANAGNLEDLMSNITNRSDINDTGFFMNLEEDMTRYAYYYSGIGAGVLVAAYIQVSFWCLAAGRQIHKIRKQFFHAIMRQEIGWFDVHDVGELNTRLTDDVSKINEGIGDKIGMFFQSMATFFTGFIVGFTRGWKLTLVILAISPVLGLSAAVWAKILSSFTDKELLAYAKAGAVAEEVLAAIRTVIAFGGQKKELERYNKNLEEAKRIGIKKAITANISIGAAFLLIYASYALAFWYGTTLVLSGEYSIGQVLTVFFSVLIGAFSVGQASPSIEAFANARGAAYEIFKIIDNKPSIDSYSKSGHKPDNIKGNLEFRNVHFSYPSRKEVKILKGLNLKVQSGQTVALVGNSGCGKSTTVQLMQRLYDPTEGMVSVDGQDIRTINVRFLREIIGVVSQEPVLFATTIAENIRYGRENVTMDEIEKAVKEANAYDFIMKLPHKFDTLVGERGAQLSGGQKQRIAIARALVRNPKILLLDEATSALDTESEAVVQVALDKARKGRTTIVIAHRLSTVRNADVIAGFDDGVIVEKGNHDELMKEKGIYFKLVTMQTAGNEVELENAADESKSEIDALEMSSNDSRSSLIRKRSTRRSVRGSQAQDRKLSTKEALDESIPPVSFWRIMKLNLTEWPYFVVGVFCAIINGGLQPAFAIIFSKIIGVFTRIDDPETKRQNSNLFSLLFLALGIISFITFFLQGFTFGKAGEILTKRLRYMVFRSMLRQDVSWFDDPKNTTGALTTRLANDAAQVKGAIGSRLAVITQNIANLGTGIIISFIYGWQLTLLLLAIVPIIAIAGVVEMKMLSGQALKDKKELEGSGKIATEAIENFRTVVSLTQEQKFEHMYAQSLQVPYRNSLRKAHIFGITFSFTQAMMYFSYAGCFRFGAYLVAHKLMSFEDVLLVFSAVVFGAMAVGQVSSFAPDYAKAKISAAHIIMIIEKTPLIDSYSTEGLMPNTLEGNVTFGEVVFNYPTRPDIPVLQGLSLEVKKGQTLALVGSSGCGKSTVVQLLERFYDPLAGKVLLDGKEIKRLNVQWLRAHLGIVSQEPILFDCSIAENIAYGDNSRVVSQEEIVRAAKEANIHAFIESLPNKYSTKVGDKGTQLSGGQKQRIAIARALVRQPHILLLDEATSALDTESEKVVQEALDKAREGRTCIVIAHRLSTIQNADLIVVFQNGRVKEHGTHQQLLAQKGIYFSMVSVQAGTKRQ
Procedure: C18 150 mm×46 mm, 3.5 um analytical column, flow rate 0.85 ml/min, detector was set at 500 nm) [15]. The mobile phase, which consisted of acetonitrile, 20 mM sodium acetate buffer pH 4.0, and water containing 1.5 mM. […] Before the end of the experiment, the transepithelial resistance was measured to ensure that the cell monolayer integrity had not been affected by the experimental conditions.

Row | Compound | Nile red emission maxima ([1]; PBS pH 7.4) | release kinetics of Nile red through peptide nanovesicles (in words) [1] | retention of Nile red molecules (in words) [1] | Caco-2 cell viability [2] | Papp of FITC-dextran 4.4 kDa ([3]; 0.2 mg/ml peptide) | Enhancement ratio (FITC-dextran) ([3]; 0.2 mg/ml peptide) | Papp of FITC-dextran 4.4 kDa ([3]; 1.0 mg/ml peptide) | Enhancement ratio (FITC-dextran) ([3]; 1.0 mg/ml peptide) | enhancement of FITC-dextran transport compared with the control [3] | CF retention / release (in words) [4] | Vesicle diameter, DLS analysis [5] | ζ-potential [6] | CMC in PBS [7] | number of nanovesicles per necklace [8] | Beads diameter, AFM analysis (necklace-like formations) [8] | Vesicle diameter, AFM analysis [8] | Clusters diameter, AFM analysis [8] | also measured
1 | acetyl-AAAAAAD-COOH (Ac-AAAAAAD-OH) [Ac-A6D-COOH, amphiphilic surfactant-like self-assembling peptide forming nanovesicles] | 626 nm | release was slower | to a lesser extent | exceeding 100% | 1.82 ± 0.24 10^-5 cm/s | 6.7 | 2.13 ± 0.16 10^-5 cm/s | 7.9 | 7.9 fold | only a small CF retention efficiency | 97 (30-320) nm | −15.4±1.1 mV | 0.05 mg/mL | 23±3 and 23 | 200 ± 11 nm | 28 ± 9 nm | 101 ± 11 nm | initially loaded CF retained by vesicles ([4]; after 7 h, PBS pH 7.4, 20° C.): 13%; Vesicle diameter, DLS analysis ([5]; listed as ac-A6D-COOH): 97 nm; Beads diameter, AFM analysis (necklace-like formations) ([8]; listed as ac-A6D-COOH): 200±11 nm; Vesicle diameter, AFM analysis ([8]; listed as ac-A6D-COOH): 28±9 nm and ~43 nm; Clusters diameter, AFM analysis ([8]; listed as ac-A6D-COOH): 101±11 nm
2 | KAAAAAA-NH2 [KA6-CONH2] | 623 nm |  |  |  |  | 4.0 |  | 5.1 | 5.1 fold |  | 164 (65-350) nm | 12.4±0.9 mV | 0.07 mg/mL |  |  | 169 ± 29 nm |  | CF retention / release (in words) ([4]; listed as KA6-CONH): did not retain CF; average diameter of second DLS peak (probably aggregates of individual vesicles) [5]: 906 nm
3 | acetyl-AAAAAAK-CONH2 (Ac-AAAAAAK-NH2) [Ac-A6K-CONH2, amphiphilic surfactant-like self-assembling peptide forming nanovesicles] | 631 nm | release was slower | retain higher numbers of Nile red molecules | exceeding 100% | 1.20 ± 0.36 10^-5 cm/s | 4.4 | 1.51 ± 0.37 10^-5 cm/s | 5.7 | 5.7 fold | significantly retained the negatively charged CF | 122 (30-173) nm | 8.5±0.3 mV | 0.16 mg/mL |  |  | 126 ± 23 nm |  | Nile red fluorescence yield compared to other peptide nanovesicle systems ([1]; PBS pH 7.4): significantly higher; CF release through peptide nanovesicles ([4]; after 7 h, PBS pH 7.4, 20° C.): approximately 50%; Vesicle diameter, DLS analysis ([5]; listed as ac-A6K-CONH2): 122 nm; Vesicle diameter, AFM analysis ([8]; listed as ac-A6K-CONH2): ~126 nm
4 | CCCCCCCCCCCCOS(=O)(=O)[O-].[Na+] [SDS 1%] |  |  |  |  |  |  |  |  |  |  |  |  |  |  |  |  |  | Enhancement ratio (Rhodamine-123) [9]: 3.0; Papp of Rhodamine-123 ([9]; basolateral to apical): 3.28 ± 0.02 10^-5 cm/s
5 | DAAAAAA-OH [DA6-COOH] | 647 nm |  |  |  |  | 5.0 |  | 6.6 | 6.6 fold | Fast CF release; also recorded: did not retain CF | 137 (64-725) nm | −14.0±1.1 mV | 0.12 mg/mL | 11±2 and 11 | 159±26 nm | 43 ± 11 nm | 135±24 nm | Vesicle diameter, AFM analysis ([8]; listed as DA6-COON): 43±11 nm

— patent US20150147384A1, “Sustained Delivery of Molecules Using Peptide Surfactants and Uses Thereof” (Massachusetts Institute of Technology, priority 2012, published 2015)
